Patent US20250236680A1 (XI AN ORIMAB BIOTECHNOLOGY, published 2025)

Columns and labels:
[1] = target: PSMA on PSMA+CHO cells (UniProt Q04609 1-750, limits assumed); test: cell-based or functional assay
[2] = target: T1, biotinylated PSMA extracellular domain recombinant protein (Acrobiosystems) (Homo sapiens (Human), UniProt Q04609 44-750, biotinylated); test: capture ELISA, curve fit in GraphPad Prism
T1 construct: Bought reagent
Method: (§1) Goat anti-human-IgG1 (Fc specific) (Jackson ImmunoResearch Laboratories, Inc, Pennsylvania, USA) was coated on wells of ELISA plate in 100 μl PBS at the concentration of 3 μg/ml, 4° C. overnight. The wells were washed twice with 200 μl PBST (PBS, pH7.4, containing 0.05% Tween 20) and then blocked with 400 μl PBS™ (PBST containing 5% dry milk) for 2 h at room temperature. Three-fold serially diluted PSMAb and PSMAbLm starting from 6 nM down to 0.1 pM in 50 μl PBS™ were then incubated with the wells respectively for 1 h at room temperature. After 6 washes with PBST, the wells were incubated with 50 μl biotinylated PSMA extracellular domain recombinant protein (Acrobiosystems, Delaware, USA) at the concentration of 0.5 μg/ml in PBS™ for 1 h at room temperature. After incubation, the wells were washed 6 times using PBST and incubated with 50 μl 1:1000 diluted streptavidin-HRP (BD bioscience, California, USA) in PBS™. After final 6 washes with PBST, colorimetric signals were developed by incubation with 70 μl 3, 3′, 5, 5′-tetramethylbenzidine (TMB, eBioscience, CA, USA) and for 20 min at room temperature, then stopped by incubation with 70 μl 1 M H₂SO₄. The absorbance was measured at 450 nm using a microplate reader (VWR, PA, USA). The binding curves were analyzed using GraphPad Prism 5.0 software.
(§2) CDR3 regions of both heavy and light chains are pivotal for antigen binding. […]

[3] = target: T1, biotinylated PSMA extracellular domain …; test: capture ELISA
Method: as §1, §2

T1 sequence (Q04609 44-750): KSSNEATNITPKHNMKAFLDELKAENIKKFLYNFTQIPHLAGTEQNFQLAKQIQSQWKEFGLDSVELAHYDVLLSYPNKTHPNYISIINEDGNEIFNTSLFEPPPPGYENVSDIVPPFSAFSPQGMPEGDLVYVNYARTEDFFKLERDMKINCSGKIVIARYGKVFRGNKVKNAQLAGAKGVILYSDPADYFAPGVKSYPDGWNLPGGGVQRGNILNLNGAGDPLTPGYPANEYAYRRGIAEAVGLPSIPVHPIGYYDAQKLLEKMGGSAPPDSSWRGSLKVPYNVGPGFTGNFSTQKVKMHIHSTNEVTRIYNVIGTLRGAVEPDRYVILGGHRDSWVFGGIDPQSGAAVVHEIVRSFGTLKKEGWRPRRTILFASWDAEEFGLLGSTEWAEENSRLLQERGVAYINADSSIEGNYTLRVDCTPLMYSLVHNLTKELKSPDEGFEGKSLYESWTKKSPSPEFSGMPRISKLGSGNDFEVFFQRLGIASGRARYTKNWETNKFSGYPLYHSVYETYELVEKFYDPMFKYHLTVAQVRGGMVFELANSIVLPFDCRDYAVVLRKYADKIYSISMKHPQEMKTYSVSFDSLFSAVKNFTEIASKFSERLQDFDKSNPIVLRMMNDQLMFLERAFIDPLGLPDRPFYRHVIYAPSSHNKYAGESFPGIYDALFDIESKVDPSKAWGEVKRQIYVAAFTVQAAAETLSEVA
PSMA on PSMA+CHO cells, sequence (Q04609 whole entry, the tested form may be a part): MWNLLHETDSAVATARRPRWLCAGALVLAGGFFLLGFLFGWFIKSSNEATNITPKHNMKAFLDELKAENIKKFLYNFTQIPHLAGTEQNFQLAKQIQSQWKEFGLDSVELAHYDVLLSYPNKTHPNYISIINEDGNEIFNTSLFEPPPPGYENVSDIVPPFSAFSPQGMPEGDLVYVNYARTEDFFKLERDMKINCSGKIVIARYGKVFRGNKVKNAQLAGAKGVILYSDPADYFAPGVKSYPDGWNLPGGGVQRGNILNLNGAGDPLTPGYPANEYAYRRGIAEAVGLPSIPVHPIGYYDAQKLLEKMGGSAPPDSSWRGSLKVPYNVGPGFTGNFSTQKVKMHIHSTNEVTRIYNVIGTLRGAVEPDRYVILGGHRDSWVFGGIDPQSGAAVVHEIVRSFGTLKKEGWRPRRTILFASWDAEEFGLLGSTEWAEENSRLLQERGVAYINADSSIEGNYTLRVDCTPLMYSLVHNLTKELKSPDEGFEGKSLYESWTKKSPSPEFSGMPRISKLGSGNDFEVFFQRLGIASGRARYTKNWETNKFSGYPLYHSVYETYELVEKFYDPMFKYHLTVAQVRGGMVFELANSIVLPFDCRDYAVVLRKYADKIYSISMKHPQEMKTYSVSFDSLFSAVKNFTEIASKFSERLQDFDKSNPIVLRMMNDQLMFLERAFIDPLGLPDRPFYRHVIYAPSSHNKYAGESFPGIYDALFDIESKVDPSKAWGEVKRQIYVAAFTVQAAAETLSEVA

Luciferase signal increase fold (ADCC, CD16-Jurkat reporter cells) at 0 pg/ml antibody [1] | Luciferase signal increase fold (ADCC, CD16-Jurkat reporter cells) at 2.286 pg/ml antibody [1] | Luciferase signal increase fold (ADCC, CD16-Jurkat reporter cells) at 6.859 pg/ml antibody [1] | Luciferase signal increase fold (ADCC, CD16-Jurkat reporter cells) at 20.576 pg/ml antibody [1] | Kd [2] | fold higher affinity than PSMAb [3] | Binder
1.1 fold | 38.9 fold | 56.6 fold | 54.7 fold |  |  | PSMAbLm-AF (afucosylated PSMAb with N=>S mutation in light chain CDR3 region) (antibody, human IgG1, lambda, V domains shown, afucosylated (expressed in Fut8-/- CHO-K1)) VH: EVQLVESGGALAKPGGSLRLSCAASGFTLSGYAMHWVRQAPGKGLEWVAVISYDGSNKYYADSVKGRFTVSRDNSKNTLFLQMNSLRPEDTAVYYCAKGLTWGLGDNDALDIWGPGTTVTVSS VL: QSVLTQPPSVSGAPGQSVIISCTGSSSNIGAGSHVHWYQQVPGTAPKLLIYENTNRPSGVPDRFSGSKSGTSGSLAITGLQPEDEADYYCATWDDSLSGVIFGGGTKATVLG
 |  |  |  | 0.0479 nM | ~2.3 fold | PSMAbLm (PSMAb with N to S mutation in light chain CDR3) (antibody, human IgG1, lambda, V domains shown, also called PMSAbLm; full antibody from Mut-gy1-2 scFv) VH: EVQLVESGGALAKPGGSLRLSCAASGFTLSGYAMHWVRQAPGKGLEWVAVISYDGSNKYYADSVKGRFTVSRDNSKNTLFLQMNSLRPEDTAVYYCAKGLTWGLGDNDALDIWGPGTTVTVSS VL: QSVLTQPPSVSGAPGQSVIISCTGSSSNIGAGSHVHWYQQVPGTAPKLLIYENTNRPSGVPDRFSGSKSGTSGSLAITGLQPEDEADYYCATWDDSLSGVIFGGGTKATVLG

The remaining lines, values behind:

Binder | Luciferase signal increase fold (ADCC, CD16-Jurkat reporter cells) at 0 pg/ml antibody [1] | Luciferase signal increase fold (ADCC, CD16-Jurkat reporter cells) at 2.286 pg/ml antibody [1] | Luciferase signal increase fold (ADCC, CD16-Jurkat reporter cells) at 6.859 pg/ml antibody [1] | Luciferase signal increase fold (ADCC, CD16-Jurkat reporter cells) at 20.576 pg/ml antibody [1] | Kd [2] | fold higher affinity than PSMAb [3]
PSMAb (parent anti-PSMA full antibody) (antibody, human IgG1, lambda, V domains shown, IgG1 with lambda constant region; also called PSMAb-WT; PMSAb-WT) VH: EVQLVESGGALAKPGGSLRLSCAASGFTLSGYAMHWVRQAPGKGLEWVAVISYDGSNKYYADSVKGRFTVSRDNSKNTLFLQMNSLRPEDTAVYYCAKGLTWGLGDNDALDIWGPGTTVTVSS VL: QSVLTQPPSVSGAPGQSVIISCTGSSSNIGAGSHVHWYQQVPGTAPKLLIYENTNRPSGVPDRFSGSKSGTSGSLAITGLQPEDEADYYCATWDDSLNGVIFGGGTKATVLG | 1.04 fold | 18.4 fold | 30 fold | 43.1 fold | 0.109 nM | 
PSMAb-AF (afucosylated PSMAb) (antibody, human IgG1, lambda, V domains shown, afucosylated (expressed in Fut8-/- CHO-K1)) VH: EVQLVESGGALAKPGGSLRLSCAASGFTLSGYAMHWVRQAPGKGLEWVAVISYDGSNKYYADSVKGRFTVSRDNSKNTLFLQMNSLRPEDTAVYYCAKGLTWGLGDNDALDIWGPGTTVTVSS VL: QSVLTQPPSVSGAPGQSVIISCTGSSSNIGAGSHVHWYQQVPGTAPKLLIYENTNRPSGVPDRFSGSKSGTSGSLAITGLQPEDEADYYCATWDDSLNGVIFGGGTKATVLG | 0.859 fold | 33 fold | 52.9 fold | 55.5 fold |  | 
